From patent US11795460B2, “Compositions and methods for TTR gene editing and treating ATTR amyloidosis” (Intellia Therapeutics, Inc., priority 2017, dated 2023)
Strand notation (5' to 3'): a small letter for the sugar, then the base; units joined by * are phosphorothioate-linked, units joined directly phosphodiester-linked; [ ] holds rarer units or linkages, { } end groups; capitals alone tell only the bases. m = 2'-O-methyl; r = 2'-OH (RNA)

B1: G000503: TTR Cyno specific sgRNA modified sequence, SEQ ID No. 115; guide sequence of CR005372 (nucleic acid)
guide: mA*mA*mA*rArGrGrCrUrGrCrUrGrArUrGrArGrArCrCrGrUrUrUrUrArGrAmGmCmUmAmGmAmAmAmUmAmGmCrArArGrUrUrArArArArUrArArGrGrCrUrArGrUrCrCrGrUrUrArUrCrAmAmCmUmUmGmAmAmAmAmAmGmUmGmGmCmAmCmCmGmAmGmUmCmGmGmUmGmCmU*mU*mU*mU
B2: G000504: TTR Cyno specific sgRNA modified sequence, SEQ ID No. 116; guide sequence of CR005364 (nucleic acid)
guide: mA*mA*mA*rGrGrCrUrGrCrUrGrArUrGrArGrArCrCrUrGrUrUrUrUrArGrAmGmCmUmAmGmAmAmAmUmAmGmCrArArGrUrUrArArArArUrArArGrGrCrUrArGrUrCrCrGrUrUrArUrCrAmAmCmUmUmGmAmAmAmAmAmGmUmGmGmCmAmCmCmGmAmGmUmCmGmGmUmGmCmU*mU*mU*mU
B3: G000505: TTR Cyno specific sgRNA modified sequence, SEQ ID No. 117; guide sequence of CR005365 (nucleic acid)
guide: mC*mA*mU*rUrGrArCrArGrCrArGrGrArCrUrGrCrCrUrGrUrUrUrUrArGrAmGmCmUmAmGmAmAmAmUmAmGmCrArArGrUrUrArArArArUrArArGrGrCrUrArGrUrCrCrGrUrUrArUrCrAmAmCmUmUmGmAmAmAmAmAmGmUmGmGmCmAmCmCmGmAmGmUmCmGmGmUmGmCmU*mU*mU*mU
B4: G000506: TTR Cyno specific sgRNA modified sequence, SEQ ID No. 118; guide sequence of CR005366 (nucleic acid)
guide: mA*mU*mA*rCrCrArGrUrCrCrArGrCrGrArGrGrCrArGrGrUrUrUrUrArGrAmGmCmUmAmGmAmAmAmUmAmGmCrArArGrUrUrArArArArUrArArGrGrCrUrArGrUrCrCrGrUrUrArUrCrAmAmCmUmUmGmAmAmAmAmAmGmUmGmGmCmAmCmCmGmAmGmUmCmGmGmUmGmCmU*mU*mU*mU

Assays:
[1] = test system: TTR; assay: EC50 and maximum editing in primary cyno hepatocytes treated with LNP formulated U-depleted Spy Cas9 mRNA and sgRNAs (Tables 20, 22); type: cell-based, cynomolgus monkey; set-up: key: % of sequence reads with indels or substitutions over total reads; conditions: Table 22, LNP with U-depleted Spy Cas9 mRNA and cyno specific sgRNAs, dose response
Procedure: (§1) Primary liver hepatocytes. Primary human liver hepatocytes (PHH) and primary cynomolgus liver hepatocytes (PCH) (Gibco) were cultured per the manufacturer's protocol (Invitrogen, protocol 11.28.2012). In brief, the cells were thawed and resuspended in hepatocyte thawing medium with supplements (Gibco, Cat. CM7000) followed by centrifugation at 100 g for 10 minutes for human and 80 g for 4 minutes for cyno. The supernatant was discarded and the pelleted cells resuspended in hepatocyte plating medium plus supplement pack (Invitrogen, Cat. A1217601 and CM3000). Cells were counted and plated on Bio-coat collagen I coated 96-well plates (ThermoFisher, Cat. 877272) at a density of 33,000 cells/well for human or 60,000 cells/well for cyno (or 65,000 cells/well when assaying effects on TTR protein, described further below). Plated cells were allowed to settle and adhere for 6 or 24 hours in a tissue culture incubator at 37° C. and 5% CO2 atmosphere. After incubation cells were checked for monolayer formation and media was replaced with hepatocyte culture medium with serum-free supplement pack (Invitrogen, Cat. A1217601 and CM4000).
(§2) For LNPs prepared using the cross-flow technique, the LNPs were formed by impinging jet mixing of the lipid in ethanol with two volumes of RNA solutions and one volume of water. The lipid in ethanol is mixed through a mixing cross with the two volumes of RNA solution. A fourth stream of water is mixed with the outlet stream of the cross through an inline tee. (See WO2016010840 FIG. 2.) The LNPs were held for 1 hour at room temperature, and further diluted with water (approximately 1:1 v/v). Diluted LNPs were concentrated using tangential flow filtration on a flat sheet cartridge (Sartorius, 100 kD MWCO) and then buffer exchanged by diafiltration into 50 mM Tris, 45 mM NaCl, 5% (w/v) sucrose, pH 7.5 (TSS). Alternatively, the final buffer exchange into TSS was completed with PD-10 desalting columns (GE). If required, formulations were concentrated by centrifugation with Amicon 100 kDa centrifugal filters (Millipore). The resulting mixture was then filtered using a 0.2 μm sterile filter. The final LNP was stored at 4° C. or −80° C. until further use.
(§3) To quantitatively determine the efficiency of editing at the target location in the genome, sequencing was utilized to identify the presence of insertions and deletions introduced by gene editing.
(§4) Primers were designed around the target site within the gene of interest (e.g. TTR), and the genomic area of interest was amplified.
(§5) Additional PCR was performed per the manufacturer's protocols (Illumina) to add chemistry for sequencing. The amplicons were sequenced on an Illumina MiSeq instrument. The reads were aligned to a reference genome (e.g., the human reference genome (hg38), the cynomologus reference genome (mf5), the rat reference genome (rn6), or the mouse reference genome (mm10)) after eliminating those having low quality scores. The resulting files containing the reads were mapped to the reference genome (BAM files), where reads that overlapped the target region of interest were selected and the number of wild type reads versus the number of reads which contain an insertion, substitution, or deletion was calculated.
(§6) The editing percentage (e.g., the “editing efficiency” or “percent editing” or “indel frequency”) is defined as the total number of sequence reads with insertions/deletions (“indels”) or substitutions over the total number of sequence reads, including wild type.
(§7) Lipid nanoparticle formulations of modified sgRNAs targeting human TTR and the cyno matched sgRNA sequences were tested on primary human hepatocytes and primary cyno hepatocytes in a dose response curve. Primary human and cyno hepatocytes were plated as described in Example 1. Both cell lines were incubated at 37° C., 5% CO2 for 24 hours prior to treatment with LNPs. […]

[2] = test system: TTR; assay: TTR editing in primary cyno hepatocytes electroporated with Spy Cas9 protein and sgRNAs (Tables 14, 15); type: cell-based, cynomolgus monkey; conditions: Table 15; primary cyno hepatocytes electroporated with Spy Cas9 protein (RNP) and cyno specific sgRNAs
Procedure: as §1
Ribonucleotide formation was performed prior to electroporation or transfection of Spy Cas9 protein loaded with guide RNAs (RNPs) onto cells. For dual guide (dgRNAs), individual crRNA and trRNA was pre-annealed by mixing equivalent amounts of reagent and incubating at 95° C. for 2 min and cooling to room temperature. Single guide (sgRNAs) were boiled at 95° C. for 2 min and cooling to room temperature. The boiled dgRNA or sgRNA was incubated with Spy Cas9 protein in Optimem for 10 minutes at room temperature to form a ribonucleoprotein (RNP) complex.
For RNP electroporation into primary human and cyno hepatocytes, the cells are thawed and resuspended in Lonza electroporation Primary Cell P3 buffer at a concentration of 2500 cells per μL for human hepatocytes and 3500 cells per μL for cyno hepatocytes. A volume of 20 μL of resuspended cells and 5 μL of RNP are mixed together per guide. 20 μL of the mixture is placed into a Lonza electroporation plate. The cells were electroporated using the Lonza nucleofector with the preset protocol EX-147. Post electroporation, the cells are transferred into a Biocoat plate containing pre-warmed maintenance media and placed in a tissue culture incubator at 37° C. and 5% CO2.
Transfected cells were harvested post-transfection at 24, 48, or 72 hours. The genomic DNA was extracted from each well of a 96-well plate using 50 μL/well BuccalAmp DNA Extraction solution (Epicentre, Cat. QE09050) per manufacturer's protocol. All DNA samples were subjected to PCR and subsequent NGS analyses, as described herein.
as §3, §4, §5
The editing percentage (e.g., the “editing efficiency” or “percent editing” or “indel frequency”) is defined as the total number of sequence reads with insertions/deletions (“indels”) or substitutions over the total number of sequence reads, including wild type. […]

[3] = test system: TTR; assay: EC50 and maximum editing in primary human hepatocytes treated with LNP formulated U-depleted Spy Cas9 mRNA and sgRNAs (Tables 19, 21); type: cell-based; set-up: key: % of sequence reads with indels or substitutions over total reads; conditions: Table 21, LNP with U-depleted Spy Cas9 mRNA and cyno specific sgRNAs, dose response
Procedure: as §1, §2, §3, §4, §5, §6, §7

[4] = test system: TTR; assay: TTR editing in primary cyno hepatocytes treated with LNP formulated Spy Cas9 mRNA (SEQ ID NO: 2) and sgRNAs (Tables 17, 18); type: cell-based, cynomolgus monkey; conditions: LNP formulated Spy Cas9 mRNA (SEQ ID NO: 2) and cyno matched sgRNAs, 72 hours post treatment
Procedure: as §1
In general, the lipid nanoparticle components were dissolved in 100% ethanol with the lipid component of various molar ratios. The RNA cargos were dissolved in 25 mM citrate, 100 mM NaCl, pH 5.0, resulting in a concentration of RNA cargo of approximately 0.45 mg/mL. The LNPs were formulated with a lipid amine to RNA phosphate (N:P) molar ratio of about 4.5 or about 6, with the ratio of mRNA to gRNA at 1:1 by weight.
The LNPs were formed by microfluidic mixing of the lipid and RNA solutions using a Precision Nanosystems NanoAssemblr™ Benchtop Instrument, according to the manufacturer's protocol. A 2:1 ratio of aqueous to organic solvent was maintained during mixing using differential flow rates. After mixing, the LNPs were collected, diluted in water (approximately 1:1 v/v), held for 1 hour at room temperature, and further diluted with water (approximately 1:1 v/v) before final buffer exchange. The final buffer exchange into 50 mM Tris, 45 mM NaCl, 5% (w/v) sucrose, pH 7.5 (TSS) was completed with PD-10 desalting columns (GE). If required, formulations were concentrated by centrifugation with Amicon 100 kDa centrifugal filters (Millipore). The resulting mixture was then filtered using a 0.2 μm sterile filter. The final LNP was stored at −80° C. until further use.
as §3, §4, §5, §6
Lipid nanoparticle formulations of modified sgRNAs targeting human TTR and the cyno matched sgRNA sequences were tested on primary human hepatocytes and primary cyno hepatocytes in a dose response curve. Primary human and cyno hepatocytes were plated as described in Example 1. […]

| Molecule | Max Editing [1] | Avg % Deletion [2] [%] | Avg % Edit [2] [%] | Avg % Insert [2] [%] | Max Editing [3] | 12.5 ng mRNA, 3.9 nM sgRNA % Edit [4] [%] |
| --- | --- | --- | --- | --- | --- | --- |
| B1 | 83.41 | 6.50 | 58.53 | 52.07 | – | – |
| B2 | 98.04 | 7.53 | 77.17 | 69.73 | 7.16 | – |
| B3 | 99.97 | 0.10 | 95.53 | 95.50 | 13.48 | – |
| B4 | 99.18 | 3.07 | 89.43 | 86.90 | 89.49 | 60.13 |
